Results on 5 molecules are retold here after article PMC8276798, “High-Level Production of Lysine in the Yeast Saccharomyces cerevisiae by Rational Design of Homocitrate Synthase” (Applied and Environmental Microbiology, 2021).

Data set [1] concerns the target T1, homocitrate synthase ScLys20 S385E variant (Saccharomyces cerevisiae, UniProt P48570, S385E).
T1 construct: gene LYS20; N-terminal His-tagged recombinant ScLys20
T1 sequence (P48570 1-428 S385E): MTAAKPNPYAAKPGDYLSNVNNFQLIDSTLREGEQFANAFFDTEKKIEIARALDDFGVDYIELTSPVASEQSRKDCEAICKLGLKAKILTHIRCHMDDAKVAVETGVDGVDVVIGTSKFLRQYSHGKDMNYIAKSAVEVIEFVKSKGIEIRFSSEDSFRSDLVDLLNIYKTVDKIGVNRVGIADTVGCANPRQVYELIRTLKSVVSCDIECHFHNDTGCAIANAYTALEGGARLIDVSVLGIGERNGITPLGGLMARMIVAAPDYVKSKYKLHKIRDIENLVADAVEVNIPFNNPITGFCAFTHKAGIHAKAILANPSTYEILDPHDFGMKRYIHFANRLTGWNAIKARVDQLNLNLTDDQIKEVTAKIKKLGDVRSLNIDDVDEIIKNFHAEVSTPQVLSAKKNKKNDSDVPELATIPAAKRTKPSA
As to the kind of experiment: DCPIP-coupled HCS activity assay with purified enzyme ([…] 2-OG, […] AcCoA). Format: biochemical.

The target of data set [2] is T2, homocitrate synthase ScLys20 (wild type) (Saccharomyces cerevisiae, UniProt P48570).
T2 construct: gene LYS20; N-terminal His-tagged recombinant ScLys20
T2 sequence (P48570 1-428): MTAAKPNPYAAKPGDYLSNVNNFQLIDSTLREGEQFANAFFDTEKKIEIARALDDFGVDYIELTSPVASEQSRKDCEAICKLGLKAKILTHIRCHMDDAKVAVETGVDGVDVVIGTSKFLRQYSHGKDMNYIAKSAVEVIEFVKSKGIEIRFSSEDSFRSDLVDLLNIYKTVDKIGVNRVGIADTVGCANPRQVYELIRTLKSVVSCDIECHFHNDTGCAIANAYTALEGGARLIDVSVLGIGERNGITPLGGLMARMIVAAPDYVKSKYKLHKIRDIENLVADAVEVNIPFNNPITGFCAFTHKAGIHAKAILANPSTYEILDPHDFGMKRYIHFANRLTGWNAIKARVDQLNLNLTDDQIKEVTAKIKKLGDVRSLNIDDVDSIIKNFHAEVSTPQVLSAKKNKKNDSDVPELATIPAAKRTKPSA
Described as above. The data set is classed as biochemical.

The target of data set [3] is T3, homocitrate synthase ScLys20 S385F variant (Saccharomyces cerevisiae, UniProt P48570, S385F).
T3 construct: gene LYS20; N-terminal His-tagged recombinant ScLys20
T3 sequence (P48570 1-428 S385F): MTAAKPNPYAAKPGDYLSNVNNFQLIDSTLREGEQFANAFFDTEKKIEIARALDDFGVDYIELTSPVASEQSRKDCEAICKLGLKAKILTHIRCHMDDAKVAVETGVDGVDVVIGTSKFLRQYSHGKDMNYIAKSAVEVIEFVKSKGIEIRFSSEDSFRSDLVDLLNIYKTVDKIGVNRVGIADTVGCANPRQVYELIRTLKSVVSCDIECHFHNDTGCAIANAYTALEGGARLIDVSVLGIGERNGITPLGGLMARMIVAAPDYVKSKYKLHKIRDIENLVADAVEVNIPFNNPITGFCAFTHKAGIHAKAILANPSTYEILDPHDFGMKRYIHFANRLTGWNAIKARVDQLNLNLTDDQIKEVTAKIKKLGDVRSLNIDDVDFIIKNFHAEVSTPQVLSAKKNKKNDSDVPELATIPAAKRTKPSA
The data set is described as above. The data set is classed as biochemical.

Substrate in data set [4]: CC(=O)SCCNC(=O)CCNC(=O)[C@H](O)C(C)(C)COP(=O)(O)OP(=O)(O)OC[C@H]1O[C@@H](n2cnc3c(N)ncnc32)[C@H](O)[C@@H]1OP(=O)(O)O
In words: steady-state kinetics of purified enzyme, DCPIP assay (apparent Km). The data set is classed as biochemical, Saccharomyces cerevisiae.

Substrate in the data set “purified protein”: O=C(O)CCC(=O)C(=O)O
As to the kind of experiment: purified protein. Conditions: active center.

The mark [5] stands for this setting: Arg31 interacts with 2-OG (homology model).

Usually IC50 stands for the concentration needed to halve the response being measured. In the case of `NCCCC[C@H](N)C(=O)O` [lysine], the IC50 in data set [1] worked out at 3200 ± 610 µM; in data set [2] it was 1000 ± 140 µM; in data set [3], 2000 ± 680 µM.

B1: homocitrate synthase ScLys20 (wild type) (Saccharomyces cerevisiae S288C) (protein)
chain: MTAAKPNPYAAKPGDYLSNVNNFQLIDSTLREGEQFANAFFDTEKKIEIARALDDFGVDYIELTSPVASEQSRKDCEAICKLGLKAKILTHIRCHMDDAKVAVETGVDGVDVVIGTSKFLRQYSHGKDMNYIAKSAVEVIEFVKSKGIEIRFSSEDSFRSDLVDLLNIYKTVDKIGVNRVGIADTVGCANPRQVYELIRTLKSVVSCDIECHFHNDTGCAIANAYTALEGGARLIDVSVLGIGERNGITPLGGLMARMIVAAPDYVKSKYKLHKIRDIENLVADAVEVNIPFNNPITGFCAFTHKAGIHAKAILANPSTYEILDPHDFGMKRYIHFANRLTGWNAIKARVDQLNLNLTDDQIKEVTAKIKKLGDVRSLNIDDVDSIIKNFHAEVSTPQVLSAKKNKKNDSDVPELATIPAAKRTKPSA
notes: N-terminal His-tagged recombinant ScLys20
The term Km denotes the substrate concentration at which the rate is half of its maximum. A word on the kcat: it is the maximal rate divided by the concentration of active sites. What is called kcat/Km is the turnover number divided by the Michaelis constant. As to B1, in data set [4], the Km came to 24.2 ± 4.21 µM, the kcat is 0.269 ± 0.014 s⁻¹ and the kcat/Km worked out at 11100 M⁻¹ s⁻¹. Besides, in the data set “purified protein” (setting [5]), the Km worked out at 4600 ± 1260 µM, the kcat was 0.287 s⁻¹ and the kcat/Km is 62.5 M⁻¹ s⁻¹.

B2: homocitrate synthase ScLys20 S385E variant (Saccharomyces cerevisiae S288C; S385E) (protein)
chain: MTAAKPNPYAAKPGDYLSNVNNFQLIDSTLREGEQFANAFFDTEKKIEIARALDDFGVDYIELTSPVASEQSRKDCEAICKLGLKAKILTHIRCHMDDAKVAVETGVDGVDVVIGTSKFLRQYSHGKDMNYIAKSAVEVIEFVKSKGIEIRFSSEDSFRSDLVDLLNIYKTVDKIGVNRVGIADTVGCANPRQVYELIRTLKSVVSCDIECHFHNDTGCAIANAYTALEGGARLIDVSVLGIGERNGITPLGGLMARMIVAAPDYVKSKYKLHKIRDIENLVADAVEVNIPFNNPITGFCAFTHKAGIHAKAILANPSTYEILDPHDFGMKRYIHFANRLTGWNAIKARVDQLNLNLTDDQIKEVTAKIKKLGDVRSLNIDDVDEIIKNFHAEVSTPQVLSAKKNKKNDSDVPELATIPAAKRTKPSA
notes: as for B1
For the molecule B2, in data set [4], the Michaelis constant (Km) turned out to be 16.1 ± 1.62 µM, the kcat was found to be 0.241 ± 0.0065 s⁻¹ and the kcat/Km was found to be 14900 M⁻¹ s⁻¹. In addition, in the data set “purified protein”, the Km was determined as 3110 ± 530 µM, the kcat was determined as 0.468 s⁻¹ and the kcat/Km came to 150 M⁻¹ s⁻¹.

B3: homocitrate synthase ScLys20 S385F variant (Saccharomyces cerevisiae S288C; S385F) (protein)
chain: MTAAKPNPYAAKPGDYLSNVNNFQLIDSTLREGEQFANAFFDTEKKIEIARALDDFGVDYIELTSPVASEQSRKDCEAICKLGLKAKILTHIRCHMDDAKVAVETGVDGVDVVIGTSKFLRQYSHGKDMNYIAKSAVEVIEFVKSKGIEIRFSSEDSFRSDLVDLLNIYKTVDKIGVNRVGIADTVGCANPRQVYELIRTLKSVVSCDIECHFHNDTGCAIANAYTALEGGARLIDVSVLGIGERNGITPLGGLMARMIVAAPDYVKSKYKLHKIRDIENLVADAVEVNIPFNNPITGFCAFTHKAGIHAKAILANPSTYEILDPHDFGMKRYIHFANRLTGWNAIKARVDQLNLNLTDDQIKEVTAKIKKLGDVRSLNIDDVDFIIKNFHAEVSTPQVLSAKKNKKNDSDVPELATIPAAKRTKPSA
notes: as for B1
Turning to B3, in data set [4], the Km was determined as 22.8 ± 4.88 µM, the kcat stood at 0.373 ± 0.023 s⁻¹ and the catalytic efficiency (kcat/Km) came out at 16400 M⁻¹ s⁻¹. In “purified protein”, the Km worked out at 1990 ± 450 µM, the kcat was determined as 0.483 s⁻¹ and the kcat/Km turned out to be 243 M⁻¹ s⁻¹.

B4: homocitrate synthase ScLys20 S385L variant (Saccharomyces cerevisiae S288C; S385L) (protein)
chain: MTAAKPNPYAAKPGDYLSNVNNFQLIDSTLREGEQFANAFFDTEKKIEIARALDDFGVDYIELTSPVASEQSRKDCEAICKLGLKAKILTHIRCHMDDAKVAVETGVDGVDVVIGTSKFLRQYSHGKDMNYIAKSAVEVIEFVKSKGIEIRFSSEDSFRSDLVDLLNIYKTVDKIGVNRVGIADTVGCANPRQVYELIRTLKSVVSCDIECHFHNDTGCAIANAYTALEGGARLIDVSVLGIGERNGITPLGGLMARMIVAAPDYVKSKYKLHKIRDIENLVADAVEVNIPFNNPITGFCAFTHKAGIHAKAILANPSTYEILDPHDFGMKRYIHFANRLTGWNAIKARVDQLNLNLTDDQIKEVTAKIKKLGDVRSLNIDDVDLIIKNFHAEVSTPQVLSAKKNKKNDSDVPELATIPAAKRTKPSA
Regarding B4, in the data set “purified protein”, the Km amounted to 9500 ± 1990 µM, the kcat was found to be 0.436 s⁻¹ and the kcat/Km is 46 M⁻¹ s⁻¹.
